Here are results for 9 molecules from paper PMC6032152, “Ca2+/Calmodulin-Dependent AtSR1/CAMTA3 Plays Critical Roles in Balancing Plant Growth and Immunity”.

T1: AtSR1 (CAMTA3) CG-1 domain (Arabidopsis thaliana, UniProt Q8GSA7 1-153)
T1 sequence: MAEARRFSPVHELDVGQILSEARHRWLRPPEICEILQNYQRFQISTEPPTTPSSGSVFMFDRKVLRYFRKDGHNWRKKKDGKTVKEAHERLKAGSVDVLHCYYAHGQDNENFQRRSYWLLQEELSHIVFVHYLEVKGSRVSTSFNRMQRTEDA

B1: ADR1 promoter fragment (dsDNA)
DNA 1: ATTAATCAAAACGCGTAAAAAGAGTA
DNA 2: TACTCTTTTTACGCGTTTTGATTAAT
B2: At5g41750-2 promoter fragment (dsDNA)
DNA 1: TCATTGGTCCTCGCGACTATAACAAA
DNA 2: TTTGTTATAGTCGCGAGGACCAATGA
B3: NPR1 promoter fragment (dsDNA)
DNA 1: AAAGTAAAAAACGCGGAAAGCAATAA
DNA 2: TTATTGCTTTCCGCGTTTTTTACTTT
B4: PDF1.4 promoter fragment (dsDNA)
DNA 1: CGTGAAAGTCACGCGCCAAGAACAAA
DNA 2: TTTGTTCTTGGCGCGTGACTTTCACG
B5: SAUR41 promoter fragment (dsDNA)
DNA 1: AACGAAGGGCCCGCGCTGTACTCGAT
DNA 2: ATCGAGTACAGCGCGGGCCCTTCGTT
B6: IAA1-2 promoter fragment (dsDNA)
DNA 1: AAGAAAGAAGCCGCGTCCAAAATCTT
DNA 2: AAGATTTTGGACGCGGCTTCTTTCTT
B7: DWF4 promoter fragment (dsDNA)
DNA 1: ATAAGCCTATACGCGCTCAAAGTATG
DNA 2: CATACTTTGAGCGCGTATAGGCTTAT
B8: IAA19 promoter fragment (dsDNA)
DNA 1: AAAAAGCACGACGCGGTGCCATTACT
DNA 2: AGTAATGGCACCGCGTCGTGCTTTTT
B9: At5g41750-1 promoter fragment (dsDNA)
DNA 1: TCTTTAGTCGTCGCGAATTCTTTGGG
DNA 2: CCCAAAGAATTCGCGACGACTAAAGA

The data set has as its target T1, AtSR1 (CAMTA3) CG-1 domain. As to the kind of experiment: EMSA; EMSA; buffer, salt, pH and temperature not given in the material. As to conditions: protein: recombinant; tags: 6His (pET32a-derived plasmid). In general terms: In EMSA bound probe runs differently from free probe, usually more slowly.
In the case of B1, the binding result is listed as “binds”.

In the case of B2, the binding result is given as “binds”.

For the molecule B3, the binding result was “binds”.

In the case of B4, the binding result is on record as “binds”.

As for B5, the binding result is listed as “no binding”.

With B6, the binding result was “binds”.

For B7, the binding result is “binds”.

For the molecule B8, the binding result is “binds”.

As for B9, the binding result was “no binding”.
